Source: patent US20240238263A1, “USE OF PYRIDONE DERIVATIVE CONTAINING HETEROATOM CYCLOBUTANE SUBSTITUENT” (GUANGZHOU JOYO PHARMATECH CO., LTD, priority 2021, published 2024)

Tested on: dorsal skin full-thickness excisional wound in STZ-induced diabetic rats
Assay: Dorsal skin full-thickness excisional wound model in STZ-induced diabetic rats, wound closure
Assay type: in vivo, Wistar rats
Conditions: for Remaining open wound area: GeneTime 0.04 mL topical twice daily
Experimental: In this study, 50 STZ-diabetic rats were used to simulate Type 1 diabetes, with an additional 8 normal rats serving as the control group (normal blank gel control group (without STZ)). The method for modeling the STZ-diabetic rat is as follows: Male Wistar rats were weighed and then intraperitoneally injected with Streptozotocin (STZ, freshly prepared, dissolved in 0.1 M citrate buffer (pH 4.5)) at a dosage of 80 mg/kg. STZ was intraperitoneally injected twice in total, with a 5-day interval between injections. Three days after the second STZ injection, rats with fasting blood glucose levels greater than 250 mg/dl were defined as diabetic model rats. Studies on skin wound healing could be conducted from 1 to 8 weeks after the successful establishment of the diabetic rat model. • 2.
In diabetic model rats, the dorsal skin was marked with a stamp, and full-thickness excision was performed to create a standardized wound area. The day of the full-thickness skin excision surgery was designated as Day 1 of the experiment. The specified surgical procedure was as follows: • 1) Prior to surgery, animals were anesthetized with 2-5% isoflurane. The back was shaved and prepared, and the surgical area was disinfected with iodophor, followed by de-iodination with 75% alcohol. • 2) All animals were marked on the skin of their backs using a stamp with a circular pattern. A circular full-thickness skin excision was performed along the midline of the rat's back, extending down to the fascial layer. […] The surgical site was essentially consistent for each animal; • 3) Post-surgery, every 8-12 hours, 8 mg/kg of bupivacaine (diluted to 0.25% with physiological saline) was injected subcutaneously at the wound site. All animals were closely monitored until they regained consciousness. Animals were monitored daily, and if symptoms of pain persisted, they would continue to receive pain medication. • 4. Drug administration:
All experimental groups were topically administered. Before administering the medication, wounds were rinsed with physiological saline and any residual moisture was absorbed with a sterile cotton swab. Then, the medication was applied. For the GeneTime group, the solution was evenly applied to the wound and surrounding skin, with the dressing changed twice a day. For the other groups, the gel samples were applied from the periphery toward the center, focusing first on the edges of the lesion before covering inward, with the dressing changed twice a day. Medication was applied immediately after the wound model was created, and each group was continuously administered for 18 days. For specific administration information, see Table 2. • 5. Efficacy assessment • 1) Blood glucose monitoring: Blood samples were obtained from all animals via tail vein sampling, and fasting blood glucose levels were measured on days 0/9/18 using a glucometer. • 2) Evaluation of wound closure:
After anesthetizing the rats with isoflurane, a ruler was placed near the wound as a reference scale. Using a digital camera, photos of the wound on the rat's back were taken on days 1, 4, 8, 11, 14, and 18, maintaining a constant focus and pixel condition. The obtained images were processed by software to measure the wound area. • 6. Statistical analysis
Experimental data were expressed as the mean±standard error of the mean (mean±S.E.M.). Statistical analyses were conducted using appropriate methods in software such as Graphpad Prism or SPSS. A p-value of less than 0.05 is considered to indicate a significant difference. • 7. Results • 1) Fasting blood glucose
Remaining Open Wound Area %=Open Wound Area (O)/Initial Wound Area (I)*100%

B1: GeneTime: Recombinant Human Epidermal Growth Factor External Solution, 2000 IU/mL; positive control (protein, UniProt P01133 23-1207, looked up)
Pro-epidermal growth factor: PQHWSCPEGTLAGNGNSTCVGPAPFLIFSHGNSIFRIDTEGTNYEQLVVDAGVSVIMDFHYNEKRIYWVDLERQLLQRVFLNGSRQERVCNIEKNVSGMAINWINEEVIWSNQQEGIITVTDMKGNNSHILLSALKYPANVAVDPVERFIFWSSEVAGSLYRADLDGVGVKALLETSEKITAVSLDVLDKRLFWIQYNREGSNSLICSCDYDGGSVHISKHPTQHNLFAMSLFGDRIFYSTWKMKTIWIANKHTGKDMVRINLHSSFVPLGELKVVHPLAQPKAEDDTWEPEQKLCKLRKGNCSSTVCGQDLQSHLCMCAEGYALSRDRKYCEDVNECAFWNHGCTLGCKNTPGSYYCTCPVGFVLLPDGKRCHQLVSCPRNVSECSHDCVLTSEGPLCFCPEGSVLERDGKTCSGCSSPDNGGCSQLCVPLSPVSWECDCFPGYDLQLDEKSCAASGPQPFLLFANSQDIRHMHFDGTDYGTLLSQQMGMVYALDHDPVENKIYFAHTALKWIERANMDGSQRERLIEEGVDVPEGLAVDWIGRRFYWTDRGKSLIGRSDLNGKRSKIITKENISQPRGIAVHPMAKRLFWTDTGINPRIESSSLQGLGRLVIASSDLIWPSGITIDFLTDKLYWCDAKQSVIEMANLDGSKRRRLTQNDVGHPFAVAVFEDYVWFSDWAMPSVMRVNKRTGKDRVRLQGSMLKPSSLVVVHPLAKPGADPCLYQNGGCEHICKKRLGTAWCSCREGFMKASDGKTCLALDGHQLLAGGEVDLKNQVTPLDILSKTRVSEDNITESQHMLVAEIMVSDQDDCAPVGCSMYARCISEGEDATCQCLKGFAGDGKLCSDIDECEMGVPVCPPASSKCINTEGGYVCRCSEGYQGDGIHCLDIDECQLGEHSCGENASCTNTEGGYTCMCAGRLSEPGLICPDSTPPPHLREDDHHYSVRNSDSECPLSHDGYCLHDGVCMYIEALDKYACNCVVGYIGERCQYRDLKWWELRHAGHGQQQKVIVVAVCVVVLVMLLLLSLWGAHYYRTQKLLSKNPKNPYEESSRDVRSRRPADTEDGMSSCPQPWFVVIKEHQDLKNGGQPVAGEDGQAADGSMQPTSWRQEPQLCGMGTEQGCWIPVSSDKGSCPQVMERSFHMPSYGTQTLEGGVEKPHSLLSANPLWQQRALDPPHQMELTQ
modifications: Pro-epidermal growth factor
notes: Recombinant Human Epidermal Growth Factor External Solution, 2000 IU/mL; positive control
- Remaining open wound area (Day 1 (day of surgery)): 100% ±
- Remaining open wound area (Day 4): 91.82% ±
- Remaining open wound area (Day 8): 52.36% ±
- Remaining open wound area (Day 14): 8.17% ±
- Remaining open wound area (Day 18): 1.79% ±
- Change of remaining open wound area % vs model blank gel control group (GeneTime, day 11 after administration, P<0.05): significantly reduced
